Molecular target: Rac1 expressed as an N-terminal GST-fusion protein (Bos taurus (Bovine), UniProt P62998 1-189)
Assay: GST pull-down, anti-FLAG Western blot
Protocol: Each cell lysate was subjected to a pull-down assay for detecting the binding of the hj03796 DH/PH, or the proto-Db1 DH/PH, to a Rho family protein. 300 μL of each cell lysate, 20 μL of Glutathione Sepharose 4B in the lysis buffer, and 100 μL of the lysis buffer were mixed. Each sample was prepared in such a way that the final concentration of MgCl₂ and dithiothreitol (DTT) was 1 mM. After reacting at 4° C. for 1 hour with rotating by rotator, each sample washed three times with 1 mL of cold lysis buffer (the final concentration of MgCl₂ was 1 mM) by centrifigation at 1,000 rpm for 15 seconds at 4° C. After washing and removing the supernatant, the Glutathione Sepharose 4B was added with 40 μL of a solution that was prepared by mixing SDS-PAGE sample buffer (the same composition as in Example 2) with an equal volume of the lysis buffer. After that, it was mixed with a mixer and subjected to a heat treatment at 100° C. for 5 minutes, to prepare a sample for electrophoresis. SDS-polyacrylamide gel electrophoresis was carried out, and then the gel was equilibrated for 5 minutes or more in a blotting buffer (the same composition as in Example 2). The proteins were transferred onto a PVDF membrane. After blotting, the PVDF membrane was subjected to blocking at 4° C. overnight, in TBS-T+BA (the same composition as in Example 2). […]

- binding result: no binding
B1: proto-Db1 DH/PH (C-terminal FLAG-tagged protein) (other)
chain: MAVLKNHVLNELIQTERVYVRELYTVLLGYRAEMDNPEMFDLMPPLLRNKKDILFGNMAEIYEFHNDIFLSSLENCAHAPERVGPCFLERKDDFQMYAKYCQNKPRSETIWRKYSECAFFQECQRKLKHRLRLDSYLLKPVQRITKYQLLLKELLKYSKDCEGSALLKKALDAMLDLLKSVNDSMHQIAINGYIGNLNELGKMIMQGGFSVWIGHKKGATKMKDLARFKPMQRHLFLYEKAIVFCKRRVESGEGSDRYPSYSFKHCWKMDEVGITEYVKGDNRKFEIWYGEKEEVYIVQASNVDVKMTWLKEIRNILLKQ
notes: Positive control; also called DH/PH domain of proto Db1; deletion mutant of proto-Db1; not shown: C-terminal FLAG tag of vector pFLAG-CMV5a
